Here are results for 94 variants from the supplement of paper PMC10567573.

B1: CDKL4 (parent)
chain: AVKKFVESEDDPVVKKIALREIRM
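Also: lentivirally expressed fusions sorted by FACS into six bins by GFP to DsRed ratio, PSI derived from sequencing read proportions per bin multiplied by bin number.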

Variants of B1 are the subject of this data set. As to the kind of experiment: protein stability index of a GFP-peptide fusion (GPS, HEK-293T) (PSI 1-6); higher = more stable. Conditions: c terminus: a fixed tail appended.
Consider AVKKIVESEDDPVVKKIALREIRM [F5I], for which the protein stability index is 2.94.

AVKKHVESEDDPVVKKIALREIRM [F5H]: the protein stability index came out at 3.24. As for AVKKAVESEDDPVVKKIALREIRM [F5A], the figure is 3.66. Turning to AVKKVVESEDDPVVKKIALREIRM [F5V], the protein stability index was 3.81. As to AVKKGVESEDDPVVKKIALREIRM [F5G], the protein stability index was determined as 4.28.

As for AVNKFVESEDDPVVKKIALREIRM [K3N], the protein stability index is 3.45. AVRKFVESEDDPVVKKIALREIRM [K3R]: the protein stability index was 3.39. As for AVHKFVESEDDPVVKKIALREIRM [K3H], the figure is 3.6.

Regarding AVTKFVESEDDPVVKKIALREIRM [K3T], the protein stability index came to 2.86. In the case of AVSKFVESEDDPVVKKIALREIRM [K3S] it was 3.23; in that of AVQKFVESEDDPVVKKIALREIRM [K3Q], 3.04; in that of AVIKFVESEDDPVVKKIALREIRM [K3I], 1.91. Turning to AVCKFVESEDDPVVKKIALREIRM [K3C], the protein stability index stood at 2.66.

In the case of AVLKFVESEDDPVVKKIALREIRM [K3L], the protein stability index worked out at 2.34.

As to AVEKFVESEDDPVVKKIALREIRM [K3E], the protein stability index was 3.72. As for AVGKFVESEDDPVVKKIALREIRM [K3G], the figure is 2.74; as for AVDKFVESEDDPVVKKIALREIRM [K3D], 3.23; as for AVKKFVESEDDPVVKKFALREIRM [I17F], 2.79.

For AVKKFVESEDDPVVKKPALREIRM [I17P], the protein stability index worked out at 3.53. In the case of AVKKFVESEDDPVVKKRALREIRM [I17R] it was 3.45; in that of AVKKFVESEDDPVVKKLALREIRM [I17L], 2.57.

AVKKFVESEDDPVVKKYALREIRM [I17Y]: the protein stability index is 2.85.

AVKKFVESEDDPVVKKMALREIRM [I17M]: the protein stability index came out at 2.87. In the case of AVKKFVESEDDPVVKKSALREIRM [I17S] it was 4.28; in that of AVKKFVESEDDPVVKKIDLREIRM [A18D], 3.84; in that of AVKKFVESEDDPVVKKIFLREIRM [A18F], 1.76. In the case of AVKKFVESEDDPVVKKIYLREIRM [A18Y] it was 2.69; in that of AVKKFVESEDDPVVKKIHLREIRM [A18H], 2.79; in that of AVKKFVESEDDPVVKKIRLREIRM [A18R], 2.76. For AVKKFVESEDDPVVKKILLREIRM [A18L], the protein stability index was 2.29. In the case of AVKKFVESEDDPVVKKIVLREIRM [A18V] it was 2.6. In the case of AVKKFVESEDDPVVKKIWLREIRM [A18W], the protein stability index worked out at 2.43.

On to AVKKFVESEDDPVVKKITLREIRM [A18T], for which the protein stability index came to 3.45. In the case of AVKKFVESEDDPVVKKINLREIRM [A18N] it was 3.35; in that of AVKKFVESEDDPVVKKISLREIRM [A18S], 3.4; in that of AVKKFVESEDDPVVKKIALRMIRM [E21M], 1.46. For AVKKFVESEDDPVVKKIALRIIRM [E21I], the protein stability index turned out to be 2.99. Consider AVKKFVESEDDPVVKKIALRNIRM [E21N], for which the protein stability index worked out at 2.96. As to AVKKFVESEDDPVVKKIALRGIRM [E21G], the protein stability index came out at 3.24.

For AVKKFVESEDDPVVKKIALRVIRM [E21V], the protein stability index was 2.46.

For AVKKFVESEDDPVVKKIALRPIRM [E21P], the protein stability index was found to be 2.57. In the case of AVKKFVESEDDPVVKKIALRRIRM [E21R] it was 3.02. As for AVKKFVESEDDPVVKKIALRCIRM [E21C], the figure is 2.37; as for AVKKFVESEDDPVVKKIALREIFM [R23F], 1.93. In the case of AVKKFVESEDDPVVKKIALREIQM [R23Q] it was 3.29; in that of AVKKFVESEDDPVVKKIALREIAM [R23A], 2.03; in that of AVKKFVESEDDPVVKKIALREIVM [R23V], 1.44. Consider AVKKFVESEDDPVVKKIALREIWM [R23W], for which the protein stability index stood at 2.03. In the case of AVKKFVESEDDPVVKKIALREIEM [R23E] it was 4.24; in that of AVKKFVESEDDPVVKKIALREIKM [R23K], 3.29; in that of AVKKFVESEDDPVVKKIALREIRD [M24D], 3.73. As for AVKKFVESEDDPVVKKIALREIRK [M24K], the protein stability index was 3.11. In the case of AVKKFVESEDDPVVKKIALREIRS [M24S] it was 3.71; in that of AVKKFVESEDDPVVKKIALREIRI [M24I], 2.97. As for AVKKFVESEDDPVVKKIALREIRW [M24W], the protein stability index turned out to be 2.48. In the case of AVKKFVLSEDDPVVKKIALREIRM [E7L] it was 1.97. AVKKFVKSEDDPVVKKIALREIRM [E7K]: the protein stability index came to 2.61.

For AVKKFVNSEDDPVVKKIALREIRM [E7N], the protein stability index was 3.19. As for AVKKFVGSEDDPVVKKIALREIRM [E7G], the figure is 1.99; as for AVKKFVESEDDPVVKKIADREIRM [L19D], 3.97. Consider AVKKFVESEDDPVVKKIAQREIRM [L19Q], for which the protein stability index was 4.22.

On to AVKKFVESEDDPVVKKIAMREIRM [L19M], for which the protein stability index worked out at 3.16. On to AVKKFVESEDDPVVKKIAIREIRM [L19I], for which the protein stability index worked out at 3.03. With AVKKFVESEDDPVVKKIAWREIRM [L19W], the protein stability index was found to be 3.15. As for AVKKFVESEDDPVVKKIAAREIRM [L19A], the figure is 3.87.

Take AVKKFVESEDDPVVHKIALREIRM [K15H]: the protein stability index was 3.14. With AVKKFVESEDDPVVEKIALREIRM [K15E], the protein stability index amounted to 3.44.

As for AVKKFVESEDDPVVWKIALREIRM [K15W], the protein stability index is 2.06. As to AVKKFVESEDDPVVVKIALREIRM [K15V], the protein stability index came to 1.6. For AVKKFVESEDDPVVYKIALREIRM [K15Y], the protein stability index came out at 1.81. As for AVKKFVESEDDPVVAKIALREIRM [K15A], the figure is 2.26; as for AVKKFVESEDDPVVPKIALREIRM [K15P], 3.46.

Consider AVKKFVESEDDPVVIKIALREIRM [K15I], for which the protein stability index was 2.4.

Consider AVKKFVESEDDPVVGKIALREIRM [K15G], for which the protein stability index was determined as 2.82. In the case of AVKKFVESEDDPVVTKIALREIRM [K15T] it was 2.66; in that of AVKKFVESEDDPVVRKIALREIRM [K15R], 2.81. As for AVKKFVESEGDPVVKKIALREIRM [D10G], the protein stability index came out at 3.07. In the case of AVKKFVESENDPVVKKIALREIRM [D10N] it was 2.91. For AVKKFVESEPDPVVKKIALREIRM [D10P], the protein stability index is 2.72. With AVKKFVESERDPVVKKIALREIRM [D10R], the protein stability index was 3.15. AVKKFVESECDPVVKKIALREIRM [D10C]: the protein stability index was 2.15. In the case of AVKKFVESEHDPVVKKIALREIRM [D10H] it was 2.82; in that of AVKKFVESEFDPVVKKIALREIRM [D10F], 1.77; in that of AVKKFVESEDDPGVKKIALREIRM [V13G], 3.54.

For AVKKFVESEDDPNVKKIALREIRM [V13N], the protein stability index was 3.28.

Regarding AVKKFVESEDDPIVKKIALREIRM [V13I], the protein stability index stood at 2.83.

For AVKKFVESEDDPDVKKIALREIRM [V13D], the protein stability index turned out to be 3.67. As for AVKKFVESEDDPCVKKIALREIRM [V13C], the figure is 2.67; as for AVKKFVESEDDPLVKKIALREIRM [V13L], 2.93. As for AVKKFVESEDDPAVKKIALREIRM [V13A], the figure is 3.23; as for AVKKFVESEDDPPVKKIALREIRM [V13P], 3.29. As for AVKKFVESEDDPEVKKIALREIRM [V13E], the figure is 3.35; as for AVKKFVESEDDPYVKKIALREIRM [V13Y], 2.3.

As to AVKKFVESEDDPSVKKIALREIRM [V13S], the protein stability index was 3.48.
